In test [1] the target is HKU1-A spike protein ectodomain (strain Caen1), trimeric, furin cleavage site mutated, with GCN4 trimerization motif (human coronavirus HKU1 (serotype A, strain Caen1)). The test is described as follows: cryo-EM structure; apo: 4.3 µM HKU1 spike trimer without ligand, applied to grids at 4 °C; single-particle analysis, C3 symmetry imposed.
For test [2] the target is unchanged. The test is described as follows: cryo-EM structure; 3 µM wild-type or W89A spike trimer with 300 µM 9-O-acetylated disialoside, incubated at room temperature for about 10 min before vitrification; single-particle analysis.
For test [3], the target named is W89A mutant HKU1-A spike protein ectodomain (human coronavirus HKU1 (serotype A)). The test is described as above.

Usually stoichiometry N stands for a count of units in the complex or per binding partner.

Take “HKU1-A spike protein ectodomain (strain Caen1), trimeric, furin cleavage site mutated, with GCN4 trimerization motif (domain or fragment)”: the stoichiometry N in test [1] and in test [2] was 3 throughout. In test [3], “W89A mutant HKU1-A spike protein ectodomain (domain or fragment)” showed a stoichiometry N of 3.

Source of the values: publication PMC10700143.
